Values belong to the binder of their own block, whether it stands above or below them.
What was measured:
[1] = target: LPHN2 Lec/Olf domain (human); assay: ELISA; solid-phase binding assay: LPHN2 extracellular domain variants (100 nM) coated on MaxiSorp 96-well plates, 1 h room temperature, blocked with 1% BSA; 0.001-10 μM LRG1 forms added; detected with anti-LRG1 antibody and peroxidase-conjugated secondary antibody
LPHN2 Lec = target: T1, LPHN2 Lec (Homo sapiens); assay: ELISA
T1 chain: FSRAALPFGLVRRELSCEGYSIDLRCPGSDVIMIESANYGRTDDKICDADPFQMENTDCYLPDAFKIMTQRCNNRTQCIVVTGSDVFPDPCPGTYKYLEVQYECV

[2] = target: T2, LPHN2 olfactomedin-like (Olf) domain (human, UniProt O95490 135-394); assay: ELISA
T2 chain: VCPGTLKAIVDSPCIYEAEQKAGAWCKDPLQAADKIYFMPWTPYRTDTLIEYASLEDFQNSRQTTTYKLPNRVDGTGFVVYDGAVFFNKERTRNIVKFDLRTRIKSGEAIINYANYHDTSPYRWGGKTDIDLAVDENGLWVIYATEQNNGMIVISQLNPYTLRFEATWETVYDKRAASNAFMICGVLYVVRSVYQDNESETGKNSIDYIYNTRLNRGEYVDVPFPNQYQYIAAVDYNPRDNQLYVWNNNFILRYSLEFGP

[3] = target: LPHN2 ecto-full domain (human); assay: ELISA; solid-phase binding assay: LPHN2 extracellular domain variants (100 nM) coated on MaxiSorp 96-well plates, 1 h room temperature, blocked with 1% BSA; 0.001-10 μM LRG1 forms added; detected with anti-LRG1 antibody and peroxidase-conjugated secondary antibody
[4] = recombinant protein expression level; details: glycan lost; control: LRG1 WT

Kd [1]: 0.92 µM
B1: Leucine-rich α-2-glycoprotein 1 (LRG1), recombinant human, glycosylated (natural protein)
chain: VTLSPKDCQVFRSDHGSSISCQPPAEIPGYLPADTVHLAVEFFNLTHLPANLLQGASKLQELHLSSNGLESLSPEFLRPVPQLRVLDLTRNALTGLPPGLFQASATLDTLVLKENQLEVLEVSWLHGLKALGHLDLSGNRLRKLPPGLLANFTLLRTLDLGENQLETLPPDLLRGPLQLERLHLEGNKLQVLGKDLLLPQPDLRYLFLNGNKLARVAAGAFQGLRQLDMLDLSNNSLASVPEGLWASLGQPNWDMRDGFDISGNPWICDQNLSDLYRWLQAQKDKMFSQNDTRCAGPEAVKGQTLLAVAKSQ
modifications: N-linked glycans (N-acetylglucosamine seen in the crystal) at N79, N186, N269 and N325; Alexa 647-conjugated in the FACS assay

Kd (LPHN2 Lec): 1.1 µM
Kd [2]: 0.45 µM
Kd [1]: 0.45 µM
Kd [3]: 0.84 µM
B2: Deglycosylated LRG1 (LRG1 treated with PNGase F) (natural protein)
chain: B1 chain
modifications: N-glycans removed by PNGase F; Alexa 647-conjugated in the FACS assay

B3: leucine-rich α-2-glycoprotein 1 (LRG1): N79D (protein)
parent chain: MSSWSRQRPKSPGGIQPHVSRTLFLLLLLAASAWGVTLSPKDCQVFRSDHGSSISCQPPAEIPGYLPADTVHLAVEFFNLTHLPANLLQGASKLQELHLSSNGLESLSPEFLRPVPQLRVLDLTRNALTGLPPGLFQASATLDTLVLKENQLEVLEVSWLHGLKALGHLDLSGNRLRKLPPGLLANFTLLRTLDLGENQLETLPPDLLRGPLQLERLHLEGNKLQVLGKDLLLPQPDLRYLFLNGNKLARVAAGAFQGLRQLDMLDLSNNSLASVPEGLWASLGQPNWDMRDGFDISGNPWICDQNLSDLYRWLQAQKDKMFSQNDTRCAGPEAVKGQTLLAVAKSQ
expression_or_secretion [4]: no change

B4: leucine-rich α-2-glycoprotein 1 (LRG1): N186D (protein)
parent chain: B3 parent chain
expression_or_secretion [4]: no change

B5: leucine-rich α-2-glycoprotein 1 (LRG1): N269D (protein)
parent chain: B3 parent chain
expression_or_secretion [4]: no change

B6: leucine-rich α-2-glycoprotein 1 (LRG1): N325D (protein)
parent chain: B3 parent chain
expression_or_secretion [4]: no change

From article PMC10238393 (2023)
